From patent US20190375823A1

Legend:
CD19 on Raji B cells = CD19 on Raji B cells (UniProt P15391); assay: cell-based or functional assay
CD3 on Jurkat T cells = CD3 on Jurkat T cells (UniProt P07766); assay: cell-based or functional assay
[1] = target: HER2 and HER3 on cells (MALME-3M or SKOV cells); assay: FACS on MALME-3M cells, FITC-labeled anti-HSA antibodies; upper end of the range
[2] = target: HER2 and HER3 on cells (MALME-3M or SKOV cells); assay: FACS on SKOV cells (20120803), FITC-labeled anti-HSA antibodies; apparent Kd
[3] = target: HER2 and HER3 on cells (MALME-3M or SKOV cells); assay: FACS; column head prints Bmax (MALME 20120603); parameters: unit not given here
[4] = target: HER2 and HER3 on cells (MALME-3M or SKOV cells); assay: FACS on MALME-3M cells, FITC-labeled anti-HSA antibodies; lower end of the range
[5] = target: HER2 and HER3 on cells (MALME-3M or SKOV cells); assay: FACS on MALME-3M cells (20120529), FITC-labeled anti-HSA antibodies; apparent Kd
[6] = target: HER2 and HER3 on cells (MALME-3M or SKOV cells); assay: FACS on SKOV-3 cells, FITC-labeled anti-HSA detection
[7] = target: HER2 and HER3 on cells (MALME-3M or SKOV cells); assay: FACS on MALME-3M cells (2012529), FITC-labeled anti-HSA antibodies

Sequence of CD3 on Jurkat T cells (P07766 23-207): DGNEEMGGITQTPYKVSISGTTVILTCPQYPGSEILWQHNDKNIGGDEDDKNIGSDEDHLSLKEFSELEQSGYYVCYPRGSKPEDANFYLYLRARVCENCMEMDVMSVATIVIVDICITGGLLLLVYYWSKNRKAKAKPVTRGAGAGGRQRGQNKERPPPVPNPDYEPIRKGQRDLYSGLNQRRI
Sequence of CD19 on Raji B cells (P15391 20-556 limits assumed): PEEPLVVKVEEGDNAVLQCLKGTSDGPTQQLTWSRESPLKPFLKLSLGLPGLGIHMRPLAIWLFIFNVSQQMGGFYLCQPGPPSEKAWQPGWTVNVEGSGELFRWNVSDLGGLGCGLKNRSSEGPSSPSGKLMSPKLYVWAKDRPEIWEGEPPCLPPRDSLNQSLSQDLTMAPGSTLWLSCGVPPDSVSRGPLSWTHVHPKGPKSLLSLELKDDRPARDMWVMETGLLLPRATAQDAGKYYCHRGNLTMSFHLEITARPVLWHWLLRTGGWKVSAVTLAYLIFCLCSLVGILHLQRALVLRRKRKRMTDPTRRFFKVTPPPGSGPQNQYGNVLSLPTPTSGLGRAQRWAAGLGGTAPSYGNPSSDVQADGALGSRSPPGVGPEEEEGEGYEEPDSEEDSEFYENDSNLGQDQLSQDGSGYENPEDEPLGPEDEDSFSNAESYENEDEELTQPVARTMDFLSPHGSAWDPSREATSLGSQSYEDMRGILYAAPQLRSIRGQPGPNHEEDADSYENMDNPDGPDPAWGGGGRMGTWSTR

| Whole cell bridging by FACS (Jurkat-violet + RAJI-FarRed): % of events labeled both violet and Far-red; needs binding of both CD3 and CD19 (% of total cells) (CD19 on Raji B cells) | Whole cell bridging by FACS (Jurkat-violet + RAJI-FarRed): % of events labeled both violet and Far-red; needs binding of both CD3 and CD19 (% of total cells) (CD3 on Jurkat T cells) | Kd [1] [nM] | Kd [2] [nM] | Bmax [3] | Kd [4] [nM] | Kd [5] [nM] | EC50 (read off the curve) [6] [nM] | Bmax [7] | Substance |
| --- | --- | --- | --- | --- | --- | --- | --- | --- | --- |
| 21 | 21 | – | – | – | – | – | – | – | v891: anti-CD3xCD19 BiTE control (bispecific antibody) |
| – | – | 55 | 10.7 | 6580 | 5 | 12000 | 10 | 1470 | v1087: benchmark control variant of MM-111 (anti-Her3 H3 scFv - AAS - albumin - AAAL - anti-Her2 B1D2 scFv) (bispecific antibody) |
